B1: 14D2 bivalent human heavy-chain-only antibody (HCAb) (antibody, V domains shown)
VH: EVQLVETGGGLIQPGGSLRLSCAASGFQVSNVYMSWVRQAPGKGQEWVSVLYSGGNTYYADSVKGRFTISRDNSKNMVYLQMNSLRVEDTAVYYCARGWEGVTGTTGPWGQGTLVTVSS
B2: 7D1 bivalent human heavy-chain-only antibody (HCAb) (antibody, V domains shown)
VH: EVQLVETGGGLIQPGGSLRLSCAASGFQVSSSYMSWVRQAPGKGLEWVSVIYSGGGTYYADSVKGRFTISRDISKNTLYLQMNNLRAEDTAMYYCARGWTGVTATTGPWGQGTLVTVSS
B3: 10H7 bivalent human heavy-chain-only antibody (HCAb) (antibody, V domains shown)
VH: EVQLVESGGGLIQPGGSLRLSCAASGFTVSNNYMAWVRQAPGKGLEWISVIYANGNTYYADSVKGRFTISRDNSKNVLFLQMSGLRAEDTAVYYCSSRYGSGSEELYDIWGQGTMVTVSS
B4: 11C12 bivalent human heavy-chain-only antibody (HCAb) (antibody, V domains shown)
VH: EVQLVESGGGLVQPGGSLRLSCAASGFTFSSSWMYWVRHIPGKGLEWVSRTTSDVASTFYADSVKGRFTVSRDNAKNMLYLQMNSLRAEDTAVYYCTRDFHDLWSGYYNHWGQGTLVTVSS
B5: 10D12 bivalent human heavy-chain-only antibody (HCAb) (antibody, V domains shown)
VH: EVQLVETGGGLIQPGGSLRLSCAVSGFTVSLNYMSWVRQAPGKGLEWVSSIYSGGSTFYADSVKGRFTISRDNSKNTLYLQMNSLRAEDTAVYYCARGLGFGELPPFDFWGQGTLVTVSS

Tests used:
[1] = target: SARS-CoV-2 S receptor binding domain (RBD) (SARS-CoV-2 (Wuhan-Hu-1), UniProt P0DTC2 329-538); experiment: ELISA
[2] = target: SARS-CoV-2 S N-terminal domain (NTD) (SARS-CoV-2 (Wuhan-Hu-1), UniProt P0DTC2 14-294); experiment: ELISA

Binder | EC50 [1] [ng/mL] | EC50 [2] [ng/mL]
B1 | 3.48 | 
B2 | 4.11 | 
B3 | 3.09 | 
B4 |  | 181
B5 | 3.22 | 
